Common to all, as to assay: cell-based or functional assay
The target in assay [1] is ecotropic receptor mCAT-1 (UniProt Q09143).
For assay [2], the target named is polytropic/xenotropic receptor encoded by the Rmc1 locus of the NIH Swiss inbred NFS/N mouse (mouse (NIH Swiss; NIH 3T3 cells)) (UniProt Q9Z0U0).
Assay [3] has as its target human polytropic/xenotropic receptor encoded by the human RMC1 locus (human) (UniProt Q9UBH6).

Where “and” joins values, the source holds several entries; their conditions need not be identical. Identical values can stand only once.

Sequence of ecotropic receptor mCAT-1 (Q09143 whole entry): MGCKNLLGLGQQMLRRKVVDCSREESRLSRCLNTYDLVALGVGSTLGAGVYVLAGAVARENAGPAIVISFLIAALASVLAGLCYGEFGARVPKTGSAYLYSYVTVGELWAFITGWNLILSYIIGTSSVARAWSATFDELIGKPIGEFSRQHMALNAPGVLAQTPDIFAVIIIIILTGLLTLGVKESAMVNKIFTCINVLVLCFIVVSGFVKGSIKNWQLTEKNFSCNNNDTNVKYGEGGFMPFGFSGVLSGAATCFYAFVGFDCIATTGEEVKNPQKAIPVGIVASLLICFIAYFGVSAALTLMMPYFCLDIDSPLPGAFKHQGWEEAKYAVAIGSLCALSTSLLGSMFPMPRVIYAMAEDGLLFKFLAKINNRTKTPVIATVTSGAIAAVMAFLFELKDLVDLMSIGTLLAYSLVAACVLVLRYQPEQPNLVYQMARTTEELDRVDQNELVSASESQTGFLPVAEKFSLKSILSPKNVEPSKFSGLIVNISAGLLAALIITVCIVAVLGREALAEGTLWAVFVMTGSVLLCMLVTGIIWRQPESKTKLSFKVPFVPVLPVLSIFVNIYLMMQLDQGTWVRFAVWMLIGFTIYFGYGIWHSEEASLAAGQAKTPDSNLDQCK
Sequence of human polytropic/xenotropic receptor encoded by the human RMC1 locus (human) (Q9UBH6 whole entry): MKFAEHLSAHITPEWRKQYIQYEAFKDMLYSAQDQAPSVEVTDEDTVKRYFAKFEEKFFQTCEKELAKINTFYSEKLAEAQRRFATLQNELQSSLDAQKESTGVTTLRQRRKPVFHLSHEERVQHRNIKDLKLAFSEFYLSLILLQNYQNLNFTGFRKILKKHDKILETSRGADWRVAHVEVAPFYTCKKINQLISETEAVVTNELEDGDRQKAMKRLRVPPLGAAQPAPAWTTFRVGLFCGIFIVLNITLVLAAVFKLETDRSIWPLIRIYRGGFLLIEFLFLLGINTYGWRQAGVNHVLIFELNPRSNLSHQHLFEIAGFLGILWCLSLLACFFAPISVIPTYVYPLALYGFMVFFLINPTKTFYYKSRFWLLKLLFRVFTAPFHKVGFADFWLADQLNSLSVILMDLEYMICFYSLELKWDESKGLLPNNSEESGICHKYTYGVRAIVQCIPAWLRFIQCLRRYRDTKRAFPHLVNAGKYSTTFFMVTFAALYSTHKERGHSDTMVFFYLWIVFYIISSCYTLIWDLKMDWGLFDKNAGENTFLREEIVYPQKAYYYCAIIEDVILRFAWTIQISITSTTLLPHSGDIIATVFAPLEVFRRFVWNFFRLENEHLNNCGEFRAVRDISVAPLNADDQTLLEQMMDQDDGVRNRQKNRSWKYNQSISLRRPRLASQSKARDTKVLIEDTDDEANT
Sequence of polytropic/xenotropic receptor encoded by the Rmc1 locus of the NIH Swiss inbred NFS/N mouse (mouse (NIH Swiss; NIH 3T3 cells)) (Q9Z0U0 whole entry): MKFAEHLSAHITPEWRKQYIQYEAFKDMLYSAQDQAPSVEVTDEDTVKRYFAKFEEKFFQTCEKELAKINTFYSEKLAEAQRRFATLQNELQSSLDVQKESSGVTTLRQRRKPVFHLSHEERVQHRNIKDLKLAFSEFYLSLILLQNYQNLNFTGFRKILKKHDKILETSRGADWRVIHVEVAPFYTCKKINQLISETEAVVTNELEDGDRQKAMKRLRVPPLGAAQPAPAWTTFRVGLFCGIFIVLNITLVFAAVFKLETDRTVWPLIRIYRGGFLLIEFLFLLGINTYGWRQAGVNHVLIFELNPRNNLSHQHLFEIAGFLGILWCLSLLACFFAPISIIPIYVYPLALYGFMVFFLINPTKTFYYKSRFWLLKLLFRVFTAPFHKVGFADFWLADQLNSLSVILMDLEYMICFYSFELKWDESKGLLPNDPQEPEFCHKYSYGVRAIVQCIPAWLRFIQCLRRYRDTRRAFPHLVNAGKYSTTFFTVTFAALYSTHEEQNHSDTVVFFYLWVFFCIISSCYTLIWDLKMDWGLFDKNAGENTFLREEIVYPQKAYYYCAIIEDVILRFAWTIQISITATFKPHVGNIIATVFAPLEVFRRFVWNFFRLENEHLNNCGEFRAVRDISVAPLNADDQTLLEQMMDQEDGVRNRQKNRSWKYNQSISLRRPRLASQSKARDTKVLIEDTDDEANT

“Akv MLV envelope protein (ecotropic envelope) (from UniProt P03386 32-669)”: in assay [1], the fold lowering of titer on PSI-2 cells against NIH 3T3 cells stood at 10000 fold; the titer of mini-virus on HeLa mCAT cells was 50000 cfu/mL and 30000 cfu/mL; the titer of mini-virus on NIH3T3 cells was 1.6e+06 cfu/mL and 800000 cfu/mL; the titer of mini-virus on PSI-2 cells (ecotropic receptor blocked by ecotropic envelope) is 170 cfu/mL and 120 cfu/mL.

Substance “MCF 247 envelope protein (polytropic MLV MCF-247)” gave a titer on NIH 3T3 (murine) cells in assay [2] of 4.8e+06 c.f.u./ml. In assay [3], this substance had a Titer on 293 cells of 2400 c.f.u./ml, a Titer on Human HeLa cells of 2 c.f.u./ml, a Titer on TE 671 cells transfected with MCF 247 (receptor blocked by MCF 247 envelope) of 16 c.f.u./ml and a titer on TE 671 (human) cells of 150 c.f.u./ml.

With “S/M Leader (SL3-2 envelope with the signal peptide of MCF 247)”, in assay [2], the titer on NIH 3T3/MCF 247 cells (polytropic receptor blocked) was 12.5 cfu/mL, the titer on NIH 3T3 cells amounted to 200000 cfu/mL and the titer on Psi-2 cells (ecotropic receptor blocked) is 100000 cfu/mL. In assay [3], this substance returned a titer on HeLa cells of 0 cfu/mL and a titer on TE 671 cells of 5 cfu/mL.

In assay [2], “S/M VR3 (SL3-2 envelope with the VR3 region of MCF 247) (from UniProt P03388 33-640)” gave a titer on NIH 3T3/MCF 247 cells (polytropic receptor blocked) of 2.5 cfu/mL, a titer on NIH 3T3 cells of 500000 cfu/mL and a titer on Psi-2 cells (ecotropic receptor blocked) of 300000 cfu/mL. In assay [3], this substance gave a titer on HeLa cells of 250 cfu/mL and a titer on TE 671 cells of 22500 cfu/mL.

In assay [2], “S/M VRA (SL3-2 envelope with the VRA segment of MCF 247)” yielded a titer on NIH 3T3/MCF 247 cells (polytropic receptor blocked) of 2.5 cfu/mL, a titer on NIH 3T3 cells of 225000 cfu/mL and a titer on Psi-2 cells (ecotropic receptor blocked) of 400000 cfu/mL. In assay [3], this substance yielded a titer on HeLa cells of 0 cfu/mL and a titer on TE 671 cells of 2.5 cfu/mL.

Turning to “S/M VRB (SL3-2 envelope with the VRB segment of MCF 247)”, in assay [2], the titer on NIH 3T3/MCF 247 cells (polytropic receptor blocked) came out at 2.5 cfu/mL, the titer on NIH 3T3 cells turned out to be 3e+06 cfu/mL and the titer on Psi-2 cells (ecotropic receptor blocked) was 500000 cfu/mL. Besides, in assay [3], the titer on HeLa cells worked out at 0 cfu/mL and the titer on TE 671 cells worked out at 5 cfu/mL.

“SL3-2 envelope mutant CR (C at 212, R at 213) (from UniProt P03388 33-640)” displayed a titer on NIH 3T3 (murine) cells in assay [2] of 2.4e+06 c.f.u./ml. Besides, the titer on TE 671 (human) cells in assay [3] is 12 c.f.u./ml.

“SL3-2 envelope mutant GA (G at 212, A at 213) (from UniProt P03388 33-640)”: the titer on NIH 3T3 (murine) cells in assay [2] was determined as 5.6e+06 c.f.u./ml. The substance further returned a titer on TE 671 (human) cells in assay [3] of 2800 c.f.u./ml.

In assay [2], “SL3-2 envelope mutant GI (G at 212, I at 213) (from UniProt P03388 33-640)” returned a Titer (cfu/mL) on NIH 3T3 cells of 2e+06 cfu/mL and a titer on NIH 3T3 (murine) cells of 7.6e+06 c.f.u./ml. In assay [3], this substance gave a Titer (cfu/mL) on TE 671 cells of 450000 cfu/mL, a Titer on 293 cells of 200000 c.f.u./ml, a Titer on Human HeLa cells of 130 c.f.u./ml and a Titer on TE 671 cells transfected with MCF 247 (receptor blocked by MCF 247 envelope) of 6000 c.f.u./ml. Also, in assay [3], the fold decrease of titer on TE 671 cells expressing MCF 247 envelope was found to be 100 fold, the fold rise of titer on human cells against wild type SL3-2 came to 100000 fold and the titer on TE 671 (human) cells is 440000 c.f.u./ml.

Substance “SL3-2 envelope mutant GK (G at 212, K at 213) (from UniProt P03388 33-640)” came in with a titer on NIH 3T3 (murine) cells in assay [2] of 5.2e+06 c.f.u./ml. The substance further returned a titer on TE 671 (human) cells in assay [3] of 5600 c.f.u./ml.

In assay [2], “SL3-2 envelope mutant GT (G at 212, T at 213) (from UniProt P03388 33-640)” gave a Titer (cfu/mL) on NIH 3T3 cells of 2e+06 cfu/mL and a titer on NIH 3T3 (murine) cells of 8.4e+06 c.f.u./ml. In assay [3], the Titer (cfu/mL) on TE 671 cells is 1500 cfu/mL and the titer on TE 671 (human) cells came to 520 c.f.u./ml.

Consider “SL3-2 envelope mutant GV (G at 212, V at 213) (from UniProt P03388 33-640)”, for which the titer on NIH 3T3 (murine) cells in assay [2] came to 3.6e+06 c.f.u./ml. In assay [3], this substance gave a titer on TE 671 (human) cells of 320000 c.f.u./ml.

Take “SL3-2 envelope mutant LA (L at 212, A at 213) (from UniProt P03388 33-640)”: the titer on NIH 3T3 (murine) cells in assay [2] is 1.1e+07 c.f.u./ml. The substance further showed a titer on TE 671 (human) cells in assay [3] of 5200 c.f.u./ml.

In assay [2], “SL3-2 envelope mutant LI (L at 212, I at 213) (from UniProt P03388 33-640)” displayed a titer on NIH 3T3 (murine) cells of 2.4e+06 c.f.u./ml. In assay [3], this substance registered a Titer on 293 cells of 12000 c.f.u./ml, a Titer on TE 671 cells transfected with MCF 247 (receptor blocked by MCF 247 envelope) of 68 c.f.u./ml, a fold decrease of titer on TE 671 cells expressing MCF 247 envelope of 100 fold and a titer on TE 671 (human) cells of 1200 c.f.u./ml.

The substance “SL3-2 envelope mutant LV (L at 212, V at 213) (from UniProt P03388 33-640)” registered a titer on NIH 3T3 (murine) cells in assay [2] of 3.6e+06 c.f.u./ml. The titer on TE 671 (human) cells in assay [3] is 16000 c.f.u./ml.

Consider “SL3-2 envelope mutant MA (M at 212, A at 213) (from UniProt P03388 33-640)”, for which, in assay [2], the titer on NIH 3T3 (murine) cells was found to be 9.6e+06 c.f.u./ml. In assay [3], this substance had a titer on TE 671 (human) cells of 250000 c.f.u./ml.

For “SL3-2 envelope mutant MI (M at 212, I at 213) (from UniProt P03388 33-640)”, the titer on NIH 3T3 (murine) cells in assay [2] was determined as 240000 c.f.u./ml. In assay [3], this substance gave a titer on TE 671 (human) cells of 28000 c.f.u./ml.

“SL3-2 envelope mutant MV (M at 212, V at 213) (from UniProt P03388 33-640)” had a titer on NIH 3T3 (murine) cells in assay [2] of 9.6e+06 c.f.u./ml. For the same substance, in assay [3], the Titer on 293 cells came to 240000 c.f.u./ml, the Titer on Human HeLa cells amounted to 100 c.f.u./ml, the Titer on TE 671 cells transfected with MCF 247 (receptor blocked by MCF 247 envelope) is 16000 c.f.u./ml and the fold decrease of titer on TE 671 cells expressing MCF 247 envelope came out at 100 fold. Besides, in assay [3], the fold rise of titer on human cells against the GI mutant was > 10 fold and the titer on TE 671 (human) cells came out at 7.2e+06 c.f.u./ml.

“SL3-2 envelope mutant RA (R at 212, A at 213) (from UniProt P03388 33-640)”: the titer on NIH 3T3 (murine) cells in assay [2] was 1e+07 c.f.u./ml. In assay [3], this substance yielded a titer on TE 671 (human) cells of 4 c.f.u./ml.

In assay [2], “SL3-2 envelope mutant RI (R at 212, I at 213) (from UniProt P03388 33-640)” displayed a Titer (cfu/mL) on NIH 3T3 cells of 3.25e+06 cfu/mL and a titer on NIH 3T3 (murine) cells of 6.4e+06 c.f.u./ml. In assay [3], this substance had a Titer (cfu/mL) on TE 671 cells of 22.5 cfu/mL and a titer on TE 671 (human) cells of 24 c.f.u./ml.

Regarding “SL3-2 envelope polypeptide (wild type envelope protein of Murine Leukaemia Virus SL3-2) (from UniProt P03388 33-640)”, in assay [3], the Titer (cfu/mL) on TE 671 cells worked out at 4.75 cfu/mL, the Titer on 293 cells was < 2 c.f.u./ml, the Titer on Human HeLa cells is < 2 c.f.u./ml and the titer on HeLa cells was 0 cfu/mL. For the same substance, in assay [3], the titer on TE 671 (human) cells was < 4 c.f.u./ml and the titer on TE 671 cells was < 2 c.f.u./ml.
